{
  "source": "patent US20170356905",
  "about": "(published 2017)",
  "biological_target": "alpha-thrombin (Homo sapiens, UniProt P00734;P00734 P00734:328-363,P00734:364-622)",
  "test": "competition; collected complementary strand (SEQ 3) increased with thrombin 0-100 ppm; HEPES/NaCl/KCl/MgCl2/Tween 20 buffer, room temperature",
  "data": [
    {"binder": "GGTTGGTGTGGTTGGTTTTT (ssDNA, 3'-biotin; five T added at 3' end (included in SEQ))", "note": "[thrombin aptamer TA-3bio]", "values": [
      {"measurement": "binding result", "result": "binds"}
    ]}
  ]
}
